Measured values as given in US20200057058A1 (MIT, published 2020).

Key:
[1] = target: monomeric streptavidin variant mSA2; assay: fluorescent binding assay, labeled mSA2 in PBS on thin film; quadratic curve fit
Procedure: (§1) The binding function of rcSso7d.SA oligomer-PNIPAM thin films was measured using fluorescently-labeled monomeric streptavidin (mSA2) and fluorescently-labeled streptavidin (SA). Details for the expression, purification, and fluorescent labeling of mSA2 are provided below. Samples were prepared by serial dilution of SA or mSA2 in PBS (pH 7.4), human urine (diluted to 50% v/v in PBS, pH 7.4), or blood serum (obtained as the supernatant by centrifuging whole blood at 1500×g for 10 minutes, then diluted to 50% v/v in PBS, pH 7.4). 0.5 μL drops of solutions containing serially diluted fluorescent mSA2 and fluorescent SA samples in PBS (pH 7.4) were gently applied to the surface of each bioconjugate thin film. Films were incubated in a sealed chamber saturated with water vapor at room temperature to prevent to prevent drying of the applied fluorescent samples. After 1 hour, films were thoroughly rinsed with water for 10 seconds (a time determined to be sufficient to remove unbound molecules from the film, see FIG. 33, dried under filtered airflow, and immediately analyzed for fluorescent signal. Fluorescence microscopy images were acquired at 4× magnification using a Cy5 filter set and exposure time of 5000 ms on an Olympus IX-81 inverted fluorescence microscope with an AxioCam HRC CCD camera. Fluorescent intensity was calculated using ImageJ software⁶⁷ by determining the average fluorescent signal in a rectangular area of the fluorescent image free of defects and occupying no less than half of the full sample application area.
Binding assays were performed by adding serially diluted solutions of fluorescently-labeled mSA2 to thin films of each studied conjugate (FIG. 6A). To maintain consistent transport properties between samples, each oligomer was conjugated to the same previously-synthesized 25 kDa PNIPAM sample. Analyte bound to thin films was quantified using fluorescence microscopy, and binding curves were fit to the collected mean fluorescent intensity (MFI) data using the following equation: […]

[2] = target: monomeric streptavidin variant mSA2; assay: calculated from [P]T of the mSA2 binding curve fit and film thickness; parameters: Calculated Density (density of binding sites within a cross-sectional area of the film): unit not given here
Procedure: To determine the density of binding proteins within a single plane of each thin film, the concentration of accessible binding sites throughout the entire film—taken directly from the binding assay curve fits (Table 4)—was multiplied by the corresponding film thickness. When accounting for differences in film thickness, the density of oligomerized rcSso7d.SA proteins capable of binding mSA2 is found to increase […] with degree of oligomerization (Table 5). This calculated density decreases, though, between the 1×SP25k and 2×SP25k thin films, indicating a lower density of accessible binding sites in the protein domains of the oligomerized rcSso7d.SA conjugate film. The total number of predicted binding sites within each thin film assuming complete accessibility should be proportional to the […] of rcSso7d. SA in the conjugate with PNIPAM. Reasonable estimates for relative values of the predicted number of sites can thus be obtained by normalizing the weight fraction of rcSso7d. SA in each conjugate by the corresponding weight fraction in 1×SP25k. Comparing these predicted relative number of binding sites to the calculated values (FIG. 6C), all oligomeric rcSso7d.SA conjugates are found to contain fewer proteins capable of binding mSA2 than predicted. It is likely that this effect results from a combination of steric blocking of binding sites by bound mSA2 molecules as well as a lack of the free volume required to incorporate mSA2 molecules into the protein nanodomains at high degrees of binding. Despite the lower than expected binding capacity of the conjugate thin films, these biosensors contain approximately […] the quantity of accessible binding sites compared to rcSso7d.SA monolayers on a volumetric basis (Table 4). Recognizing that each plane (and a monolayer) of rcSso7d.SA proteins is roughly 1-2 nm thick,⁸⁰ the studied thin films can be determined to contain approximately 100 more planes of protein than a monolayer.

[3] = target: monomeric streptavidin variant mSA2; assay: fluorescent binding assay, labeled mSA2; signal three standard deviations above blank
Procedure: as §1
Oligomerization of rcSso7d.SA also brings about a decrease in biosensor limit of detection (LOD). […] While all thin films display improvements up to threefold in LOD over the monolayer, the trend in LOD with respect to degree of oligomerization is non-monotonic. The primary factor that is expected to affect LOD in the studied biosensors is number of binding sites, as more binding sites enable a greater number of analyte molecules to be captured and shifts analyte-receptor equilibrium in favor of binding events.

[4] = target: T1, streptavidin (UniProt P22629 37-163, limits assumed); assay: fluorescent binding assay: Alexa Fluor 647-labeled streptavidin applied to the thin film; the sheet names the film 2xSP25k, the legend 2xSP17k
T1 construct: It was used without a stated label in the sandwich assays; also called SA
Procedure: as §1, with “Films were incubated in a sealed chamber saturated with water vapor at room temperature to prevent to prevent drying of the applied fluorescent samples.” left out

[5] = target: T1, streptavidin; assay: sandwich assay, SA in 50% blood serum, detection with biotin-HRP and TMB
Procedure: (§2) Each well was submerged in 1 mL of 1% BSA in Milli-Q water, and the 12-well plate was incubated at 37° C. for 30 minutes. The wells were rinsed twice by adding 2 mL of Milli-Q water and gently shaking the well plate at 70 rpm for 5 minutes. 1 mL of streptavidin diluted in PBS, urine, or blood serum (prepared as described in the Fluorescent Assays section) containing 0.1% BSA was then added to each well, and the well plate was shaken at 70 rpm for 4 hours at room temperature. Wells were rinsed twice with 2 mL of Milli-Q water then twice with 2 mL of 0.1% BSA in Milli-Q water by shaking at 70 rpm for 5 minutes. After rinsing, wells were submerged in 1 mL of 200 ng/mL biotin-HRP in Milli-Q water containing 0.1% BSA, and the well plate was shaken at 70 rpm for 1 hour at room temperature. Wells were then rinsed with water and 0.1% BSA as described previously. 1 mL of solution from a Pierce TMB substrate kit (Thermo Fisher Scientific) was added to each well, and the well plate was shaken vigorously at 125 rpm for 15 minutes at room temperature. 1 mL of 2M H2SO4 was added to each well, and the absorbance at 450 nm was read using a Tecan Infinite M200 PRO plate reader.
(§3) The general procedure for this proof-of-concept experiment is diagrammed in FIG. 28. Films were first exposed to SA solutions and rinsed to remove unbound analyte. Taking advantage of the strong interaction between SA and biotin, thin films were then submerged in a solution of biotinylated horseradish peroxidase (biotin-HRP). Bound SA was detected colorimetrically through the HRP-mediated oxidation of 3,3′,5,5′-tetramethylbenzidine (TMB). Attempts to perform this assay using mSA2 as the analyte were unsuccessful, even when run on an rcSso7d.SA monolayer.

[6] = target: monomeric streptavidin variant mSA2; assay: fluorescent binding curve, labeled mSA2 in 50% urine, 4 h; quadratic fit
[7] = target: monomeric streptavidin variant mSA2; assay: fluorescent binding assay, labeled mSA2 in 50% urine on thin film, 4 h exposure
Procedure: as §1, with “After 1 hour, films were thoroughly rinsed with water for 10 seconds (a time determined to be sufficient to remove unbound molecules from the film, see FIG. 33, dried under filtered airflow, and immediately analyzed for fluorescent signal.” left out
(§4) To evaluate how the apparent size-based diffusion properties translated to biosensing capabilities, binding curves were measured using SA and mSA2 solutions in buffer. Binding curves were fit with a quadratic model that is a function of three parameters: the average MFI per binding event a, the total concentration of binding sites [P]T, and the apparent dissociation constant K_{d,app} describing the binding equilibrium between analyte and binding sites within the thin film.

[8] = target: monomeric streptavidin variant mSA2; assay: apparent Kd (Kd,app); fluorescent binding curve, labeled mSA2 in 50% urine, 4 h; quadratic fit
[9] = target: T1, streptavidin; assay: fluorescent binding assay, labeled SA in 50% urine on thin film, 4 h exposure
[10] = target: T1, streptavidin; assay: apparent Kd (Kd,app); fluorescent binding curve, labeled SA in 50% urine, 4 h; quadratic fit
[11] = target: monomeric streptavidin variant mSA2; assay: apparent Kd (Kd,app); fluorescent binding curve, labeled mSA2 in 50% blood serum, 4 h; quadratic fit
[12] = target: T1, streptavidin; assay: fluorescent binding curve, labeled SA in 50% blood serum, 4 h; quadratic fit
[13] = target: T1, streptavidin; assay: fluorescent binding curve, labeled SA in 50% urine, 4 h; quadratic fit
[14] = target: monomeric streptavidin variant mSA2; assay: fluorescent binding assay, labeled mSA2 in 50% blood serum on thin film, 4 h exposure
Procedure: as §1, with “After 1 hour, films were thoroughly rinsed with water for 10 seconds (a time determined to be sufficient to remove unbound molecules from the film, see FIG. 33, dried under filtered airflow, and immediately analyzed for fluorescent signal.” left out
as §4

[15] = target: T1, streptavidin; assay: apparent Kd (Kd,app); fluorescent binding curve, labeled SA in 50% blood serum, 4 h; quadratic fit
[16] = target: monomeric streptavidin variant mSA2; assay: fluorescent binding curve, labeled mSA2 in 50% blood serum, 4 h; quadratic fit
[17] = target: monomeric streptavidin variant mSA2; assay: fluorescent binding curves, labeled mSA2 in 50% urine or 50% blood serum, 4 h
[18] = target: T1, streptavidin; assay: sandwich assay: SA in 50% blood serum, biotin-HRP/TMB detection
Procedure: as §2, §3

[19] = target: T1, streptavidin; assay: fluorescent binding assay, labeled SA in 50% blood serum on thin film, 4 h exposure
[20] = target: T1, streptavidin; assay: sandwich assay: SA in 50% urine, biotin-HRP/TMB detection
Procedure: as §2, §3

[21] = target: T1, streptavidin; assay: fluorescent binding assay: Alexa Fluor 647-labeled streptavidin applied to the thin film; the sheet names the film 4xSP25k, the legend 4xSP30k
Procedure: as §1, with “Films were incubated in a sealed chamber saturated with water vapor at room temperature to prevent to prevent drying of the applied fluorescent samples.” left out

T1 sequence (P22629 37-163 limits assumed): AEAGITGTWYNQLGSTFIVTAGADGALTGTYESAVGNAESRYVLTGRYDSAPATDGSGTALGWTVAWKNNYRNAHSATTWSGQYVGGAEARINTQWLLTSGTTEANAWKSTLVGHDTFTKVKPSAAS

B1: 2xSP25k thin film (2x rcSso7d.SA-PNIPAM conjugate, 25 kDa PNIPAM) (designed binder)
chain: MGSSHHHHHHSSGLVPRGSHMCATVKFTYQGEEKQVDISKIKIVARDGQYIDFKYDEGGGAYGYGWVSEKDAPKELLQMLEKQGGGGSGGGGSMATVKFTYQGEEKQVDISKIKIVARDGQYIDFKYDEGGGAYGYGWVSEKDAPKELLQMLEKQGG
modifications: maleimide end-functionalized PNIPAM (25 kDa) on the N-terminal Cys; film lightly crosslinked with glutaraldehyde
notes: Two rcSso7d.SA repeats joined by a (G4S)2 linker in one chain
[P]T (total concentration of accessible binding sites) [1]: 3.3 µM | Calculated Density (density of binding sites within a cross-sectional area of the film) [2]: 43 | Calculated Ratio (film thickness x [P]T relative to the 1xSP25k thin film) [2]: 0.9 | limit of detection (LOD) [3]: 200 nM | binding result [4]: binds

B2: 3xSP30.3k thin film (3x rcSso7d.SA-PNIPAM conjugate, PNIPAM Mn 30.3 kDa) (designed binder)
chain: MGSSHHHHHHSSGLVPRGSHMCATVKFTYQGEEKQVDISKIKIVARDGQYIDFKYDEGGGAYGYGWVSEKDAPKELLQMLEKQGGGGSGGGGSMATVKFTYQGEEKQVDISKIKIVARDGQYIDFKYDEGGGAYGYGWVSEKDAPKELLQMLEKQGGGGSGGGGSMATVKFTYQGEEKQVDISKIKIVARDGQYIDFKYDEGGGAYGYGWVSEKDAPKELLQMLEKQGG
modifications: maleimide end-functionalized PNIPAM (Mn 30.3 kDa) on the N-terminal Cys; film lightly crosslinked with glutaraldehyde
LOD relative to rcSso7d.SA monolayer [5]: 2 fold | [P]T (total concentration of binding sites) [6]: 16 nM | Limit of Detection [7]: 12 nM | Kd [8]: 29 µM | Limit of Detection [9]: 1100 nM | Kd [10]: 30 µM | Kd [11]: 20 µM | [P]T (total concentration of binding sites) [12]: 0.23 nM | [P]T (total concentration of binding sites) [13]: 0.27 nM | Limit of Detection [14]: 25 nM | Kd [15]: 40 µM | [P]T (total concentration of binding sites) [16]: 5.7 nM | LOD relative to rcSso7d.SA monolayer [17]: 2 orders of magnitude lower | LOD [18]: 87 nM | Limit of Detection [19]: 1800 nM | LOD [20]: 28 nM

B3: 4xSP25k thin film (4x rcSso7d.SA-PNIPAM conjugate, 25 kDa PNIPAM) (designed binder)
chain: MGSSHHHHHHSSGLVPRGSHMCATVKFTYQGEEKQVDISKIKIVARDGQYIDFKYDEGGGAYGYGWVSEKDAPKELLQMLEKQGGGGSGGGGSMATVKFTYQGEEKQVDISKIKIVARDGQYIDFKYDEGGGAYGYGWVSEKDAPKELLQMLEKQGGGGSGGGGSMATVKFTYQGEEKQVDISKIKIVARDGQYIDFKYDEGGGAYGYGWVSEKDAPKELLQMLEKQGGGGSGGGGSMATVKFTYQGEEKQVDISKIKIVARDGQYIDFKYDESGGAYGYGWVSEKDAPKELLQMLEKQ
modifications: maleimide end-functionalized PNIPAM (25 kDa) on the N-terminal Cys; film lightly crosslinked with glutaraldehyde
notes: Four rcSso7d.SA repeats joined by (G4S)2 linkers in one chain
[P]T (total concentration of accessible binding sites) [1]: 3.7 µM | Calculated Density (density of binding sites within a cross-sectional area of the film) [2]: 62 | Calculated Ratio (film thickness x [P]T relative to the 1xSP25k thin film) [2]: 1.31 | limit of detection (LOD) [3]: 140 nM | binding result [21]: binds

B4: 1xSP25k thin film (1x rcSso7d.SA-PNIPAM conjugate, 25 kDa PNIPAM) (designed binder)
chain: MGSIHHHHHHSSGLVPRGSHMCATVKFTYQGEEKQVDISKIKIVARDGQYIDFKYDEGGGAYGYGWVSEKDAPKELLQMLEKQ
modifications: maleimide end-functionalized PNIPAM (25 kDa) on the N-terminal Cys; film lightly crosslinked with glutaraldehyde
[P]T (total concentration of accessible binding sites) [1]: 3.1 µM | Calculated Density (density of binding sites within a cross-sectional area of the film) [2]: 48 | Calculated Ratio (film thickness x [P]T relative to the 1xSP25k thin film) [2]: 1 | limit of detection (LOD) [3]: 290 nM
